The target in test [1] is human IL-8 (human). Kind of test: SPR, pH 7.4, 37C. (Surface plasmon resonance follows binding to a sensor surface in real time, without labels.)
Test [2] addresses human IL-8 (human). Kind of test: SPR, pH 5.8, 37C.
Test [3] has as its target human IL-8 (human). Kind of test: SPR, pH 7.4.
Test [4] has as its target human IL-8 (human). Kind of test: SPR, pH 5.8.
Test [5] addresses human IL-8 (human). Kind of test: SPR, pH 5.8, 37C. This is another data set of the same source.
In test [6] the target is human IL-8 (human). Kind of test: SPR, pH 7.4. The source holds these as a separate data set.
The target in test [7] is human IL-8 (human). Kind of test: SPR, pH 5.8. The source holds these as a separate data set.

Positions count from the first letter of the chain named.

Chain of human IL-8 (human) (chain, as listed by the source): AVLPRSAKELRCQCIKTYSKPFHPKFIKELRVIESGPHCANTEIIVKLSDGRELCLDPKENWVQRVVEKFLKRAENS

B1: H89/L16 (antibody, V domains shown)
VH: QVQLVESGGGLVQPGGSLRLSCAASGFTFSDYYLSWVRQAPGKGLEWVGLIRNKANGYTREYSASVKGRFTISRDDSKNSLYLQMSSLKTEDTAVYYCARENHRYDVELAYWGQGTLVTVSS
VL: DIQMTQSPSSLSASVGDRVTITCRASEIIYSYLAWYQQKPGKAPKLLIYNAKTHADGVPSRFSGSGSGTDFTFTISSLQPEDIATYYCQHHFGFPRTFGQGTKVEIKR
One may read the Kd as a measure of binding affinity in units of concentration. Read a high Kd as a looser complex. Regarding B1, the dissociation constant (Kd) came to 0.699 nM in the test with human IL-8 [1] and 35.1 nM with human IL-8 [2].

B2: H89/L118 (antibody, V domains shown)
VH: B1 VH
VL: B1 VL with N50H, Q89K
With B2, the dissociation constant (Kd) was 0.172 nM with human IL-8 [3]; 48.8 nM with human IL-8 [4]; 31.8 nM with human IL-8 [5]; 0.17 nM with human IL-8 [6]; 49 nM with human IL-8 [7]; 21.5 nM in the test with human IL-8 [2].

B3: H1009/L395 (antibody, V domains shown)
VH: B1 VH with A55D, G57Y, Y58H, R60P, Q84T, S87D
VL: B1 VL with N50K, Q89K
For B3, the Kd worked out at 0.071 nM with human IL-8 [6] and 87 nM in the test with human IL-8 [7].

B4: Hr9/L16 (antibody, V domains shown)
VH: B1 VH with H103Y
VL: B1 VL
As for B4, the Kd in the test with human IL-8 [1] worked out at 0.108 nM; in the test with human IL-8 [2], 5.04 nM.
